Source: paper PMC12851578
Several values for one entry are separate records, joined by “and”; a condition that tells them apart may be missing. Equal entries are not always repeated.

Target: actin purified from muscle (F-actin) (Bos taurus (ground beef)) (UniProt P68138)
Test: co-sedimentation

Lfat1 ABD [change], recombinant (from UniProt Q5ZVQ3 138-355) (domain or fragment)
Kd: 19.1 µM and 16.3 µM and 63.7 µM
